Patent publication US6084068, “Elongin A and C functional domains” (Oklahoma Medical Research Foundation, dated 2000)
Positions count from the first letter of the chain named. Names and notes keep the numbering of the source.

Legend:
wild type Elongin B = wild type Elongin B (rat, UniProt P62870); experiment: refolded with wild type Elongin B; TSK DEAE-NPR HPLC, SDS-PAGE, silver staining
Experimental: Figure 10A: FIG. 10A. […] Aliquots of the indicated column fractions were analyzed by SDS-PAGE, and proteins were visualized by silver staining. Figure 10B: FIG. 10B. N-terminal, C-terminal, and internal Elongin C deletion mutants were assayed for their abilities to form Elongin BC complexes as described.
~6 µg of Elongin B was mixed with ~6 µg of either wild type or mutant Elongin C and diluted 5-fold with 40 mM Hepes-NaOH (pH 7.9), 100 mM KCl, 2 mM DTT, 50 µM ZnSO_4, 0.1 mM EDTA, and 10% (v/v) glycerol. After incubation for 90 min on ice, the mixtures were dialyzed at 4° C. overnight against 40 mM Tris-HCl (pH 7.9), 0.1 mM EDTA, 10% (v/v) glycerol, and 40 mM KCl. Following dialysis, the mixtures were centrifuged at 60,000×g for 15 min at 4° C. The resulting supernatants were applied to TSK DEAE-NPR columns (35 mm×4.6 mm, Toso-Haas) pre-equilibrated in 40 mM Tris-HCl (pH 7.9), 0.1 mM EDTA, 1 mM DTT, 10% (v/v) glycerol, and 40 mM KCl and fractionated using a SMART microchromatography system (Pharmacia) at 8° C. The columns were eluted at 0.3 ml/min with a 3 ml linear gradient from 0.04 to 0.5M KCl in 40 mM Tris-HCl (pH 7.9), 0.1 mM EDTA, 1 mM DTT, and 10% (v/v) glycerol. Aliquots of each column fraction were analyzed by 10% Tris-Tricine SDS-polyacrylamide gel electrophoresis, and the proteins were visualized by silver staining.

[1] = target: T1, Elongin BC complex (wild type rat Elongin B and C) (rat, UniProt P62870); experiment: refolded with wild type Elongin B and C; TSK SP-NPR HPLC, SDS-PAGE, silver staining
T1 chain 1: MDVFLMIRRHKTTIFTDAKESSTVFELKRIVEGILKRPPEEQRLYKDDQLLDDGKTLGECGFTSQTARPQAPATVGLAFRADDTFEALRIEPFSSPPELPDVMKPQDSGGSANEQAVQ
T1 chain 2: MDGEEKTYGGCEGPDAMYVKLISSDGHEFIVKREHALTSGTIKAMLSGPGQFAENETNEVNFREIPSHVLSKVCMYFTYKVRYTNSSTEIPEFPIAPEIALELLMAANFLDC

B1: Elongin C deletion mutant C(19-112) (other)
chain: VKLISSDGHEFIVKREHALTSGTIKAMLSGPGQFAENETNEVNFREIPSHVLSKVCMYFTYKVRYTNSSTEIPEFPIAPEIALELLMAANFLDC
binding result (wild type Elongin B): binds

B2: Elongin A internal deletion mutant Δ546-565 (other)
chain: MAAESALQVVEKLQARLAANPDPKKLLKYLKKLSVLPITVDILVETGVGKTVNSFRKHEQVGNFARDLVAQWKKLVPVERNNEAEDQDFEKSNSRKRPRDVPQQEEEAEGNYQESWQASGSQPYSPEHRQKKHRKLPELERPHKVAHGHERRDERKRCHKVSPPYSSDPESSDYGHVQSPPPSSPHQMYTDLSRSPEMDQEPIVSHPKPGKVHSNTFQDRLGVSHLGEHQGKGAVSQNKPHKSSHKEKRPVDARGDEKSSVMGREKSHKASSKEESRRLLSEDSAKEKLPSSVVKKEKDREGNSLKKKLSPALDVASDNHFKKPKHKDSEKIKSDKNKQSVDSVDSGRGTGDPLPRAKDKVPNNLKAQEGKVRTNSDRKSPGSLPKVEEMDMDDEFEQPTMSFESYLSYDQPRKKKKKVVKTSGTALGEKGLKKKDSKSTSKNLNSAQKLPKANENKSDKLQPAGAEPTRPRKVPTDVLPALPDIPLPAIQTNYRPLPSLELISSFQPKRKAFSSPQEEEEAGFTGRRMNSKMQVYSGSKCAYLPFEVGGVPYSVLEPVLERCTPDQLYRIEECNHVLIEETDQLWKVHCHRDFKEERPEEYESWREMYLRLQDAREQRLRLLTNNIRSAHANKPKGRQAKMAFVNSVAKPPRDVRRRQEKFGTGGAAVPEKVRIKPAPYTTGSSHVPASNSSSSFHSSPEELAYEGPSTSSAHLAPVASSSVSYDPRKPAVKKIAPMMAKTIKAFKNRFSRR
binding result [1]: no binding

B3: Elongin C internal deletion mutant C(Δ31-40) (other)
chain: MDGEEKTYGGCEGPDAMYVKLISSDGHEFITIKAMLSGPGQFAENETNEVNFREIPSHVLSKVCMYFTYKVRYTNSSTEIPEFPIAPEIALELLMAANFLDC
binding result (wild type Elongin B): binds

B4: Elongin C internal deletion mutant C(Δ41-50) (other)
chain: B3 chain with T31V, I32K, K33R, A34E, M35H, L36A, S37L, G38T, P39S
binding result (wild type Elongin B): binds

B5: Elongin C deletion mutant C(15-112) (other)
chain: DAMYVKLISSDGHEFIVKREHALTSGTIKAMLSGPGQFAENETNEVNFREIPSHVLSKVCMYFTYKVRYTNSSTEIPEFPIAPEIALELLMAANFLDC
binding result (wild type Elongin B): binds

B6: Elongin C deletion mutant C(1-83) (other)
chain: MDGEEKTYGGCEGPDAMYVKLISSDGHEFIVKREHALTSGTIKAMLSGPGQFAENETNEVNFREIPSHVLSKVCMYFTYKVRY
binding result (wild type Elongin B): binds

B7: Elongin A deletion mutant A(1-535) (other)
chain: MAAESALQVVEKLQARLAANPDPKKLLKYLKKLSVLPITVDILVETGVGKTVNSFRKHEQVGNFARDLVAQWKKLVPVERNNEAEDQDFEKSNSRKRPRDVPQQEEEAEGNYQESWQASGSQPYSPEHRQKKHRKLPELERPHKVAHGHERRDERKRCHKVSPPYSSDPESSDYGHVQSPPPSSPHQMYTDLSRSPEMDQEPIVSHPKPGKVHSNTFQDRLGVSHLGEHQGKGAVSQNKPHKSSHKEKRPVDARGDEKSSVMGREKSHKASSKEESRRLLSEDSAKEKLPSSVVKKEKDREGNSLKKKLSPALDVASDNHFKKPKHKDSEKIKSDKNKQSVDSVDSGRGTGDPLPRAKDKVPNNLKAQEGKVRTNSDRKSPGSLPKVEEMDMDDEFEQPTMSFESYLSYDQPRKKKKKVVKTSGTALGEKGLKKKDSKSTSKNLNSAQKLPKANENKSDKLQPAGAEPTRPRKVPTDVLPALPDIPLPAIQTNYRPLPSLELISSFQPKRKAFSSPQEEEEAGFTGRRMNSKMQV
binding result [1]: no binding

B8: Elongin A internal deletion mutant Δ441-480 (other)
chain: MAAESALQVVEKLQARLAANPDPKKLLKYLKKLSVLPITVDILVETGVGKTVNSFRKHEQVGNFARDLVAQWKKLVPVERNNEAEDQDFEKSNSRKRPRDVPQQEEEAEGNYQESWQASGSQPYSPEHRQKKHRKLPELERPHKVAHGHERRDERKRCHKVSPPYSSDPESSDYGHVQSPPPSSPHQMYTDLSRSPEMDQEPIVSHPKPGKVHSNTFQDRLGVSHLGEHQGKGAVSQNKPHKSSHKEKRPVDARGDEKSSVMGREKSHKASSKEESRRLLSEDSAKEKLPSSVVKKEKDREGNSLKKKLSPALDVASDNHFKKPKHKDSEKIKSDKNKQSVDSVDSGRGTGDPLPRAKDKVPNNLKAQEGKVRTNSDRKSPGSLPKVEEMDMDDEFEQPTMSFESYLSYDQPRKKKKKVVKTSGTALGEKGLKKKDSKSTALPDIPLPAIQTNYRPLPSLELISSFQPKRKAFSSPQEEEEAGFTGRRMNSKMQVYSGSKCAYLPKMMTLHQQCIRVLKNNIDSIFEVGGVPYSVLEPVLERCTPDQLYRIEECNHVLIEETDQLWKVHCHRDFKEERPEEYESWREMYLRLQDAREQRLRLLTNNIRSAHANKPKGRQAKMAFVNSVAKPPRDVRRRQEKFGTGGAAVPEKVRIKPAPYTTGSSHVPASNSSSSFHSSPEELAYEGPSTSSAHLAPVASSSVSYDPRKPAVKKIAPMMAKTIKAFKNRFSRR
binding result [1]: binds

B9: Elongin A internal deletion mutant Δ521-545 (other)
chain: MAAESALQVVEKLQARLAANPDPKKLLKYLKKLSVLPITVDILVETGVGKTVNSFRKHEQVGNFARDLVAQWKKLVPVERNNEAEDQDFEKSNSRKRPRDVPQQEEEAEGNYQESWQASGSQPYSPEHRQKKHRKLPELERPHKVAHGHERRDERKRCHKVSPPYSSDPESSDYGHVQSPPPSSPHQMYTDLSRSPEMDQEPIVSHPKPGKVHSNTFQDRLGVSHLGEHQGKGAVSQNKPHKSSHKEKRPVDARGDEKSSVMGREKSHKASSKEESRRLLSEDSAKEKLPSSVVKKEKDREGNSLKKKLSPALDVASDNHFKKPKHKDSEKIKSDKNKQSVDSVDSGRGTGDPLPRAKDKVPNNLKAQEGKVRTNSDRKSPGSLPKVEEMDMDDEFEQPTMSFESYLSYDQPRKKKKKVVKTSGTALGEKGLKKKDSKSTSKNLNSAQKLPKANENKSDKLQPAGAEPTRPRKVPTDVLPALPDIPLPAIQTNYRPLPSLELISSFQPKRKAFSSPQEEEKMMTLHQQCIRVLKNNIDSIFEVGGVPYSVLEPVLERCTPDQLYRIEECNHVLIEETDQLWKVHCHRDFKEERPEEYESWREMYLRLQDAREQRLRLLTNNIRSAHANKPKGRQAKMAFVNSVAKPPRDVRRRQEKFGTGGAAVPEKVRIKPAPYTTGSSHVPASNSSSSFHSSPEELAYEGPSTSSAHLAPVASSSVSYDPRKPAVKKIAPMMAKTIKAFKNRFSRR
binding result [1]: binds

B10: Elongin C deletion mutant C(1-97) (other)
chain: MDGEEKTYGGCEGPDAMYVKLISSDGHEFIVKREHALTSGTIKAMLSGPGQFAENETNEVNFREIPSHVLSKVCMYFTYKVRYTNSSTEIPEFPIAP
binding result (wild type Elongin B): binds

B11: Elongin A internal deletion mutant Δ481-520 (other)
chain: MAAESALQVVEKLQARLAANPDPKKLLKYLKKLSVLPITVDILVETGVGKTVNSFRKHEQVGNFARDLVAQWKKLVPVERNNEAEDQDFEKSNSRKRPRDVPQQEEEAEGNYQESWQASGSQPYSPEHRQKKHRKLPELERPHKVAHGHERRDERKRCHKVSPPYSSDPESSDYGHVQSPPPSSPHQMYTDLSRSPEMDQEPIVSHPKPGKVHSNTFQDRLGVSHLGEHQGKGAVSQNKPHKSSHKEKRPVDARGDEKSSVMGREKSHKASSKEESRRLLSEDSAKEKLPSSVVKKEKDREGNSLKKKLSPALDVASDNHFKKPKHKDSEKIKSDKNKQSVDSVDSGRGTGDPLPRAKDKVPNNLKAQEGKVRTNSDRKSPGSLPKVEEMDMDDEFEQPTMSFESYLSYDQPRKKKKKVVKTSGTALGEKGLKKKDSKSTSKNLNSAQKLPKANENKSDKLQPAGAEPTRPRKVPTDVLPEAGFTGRRMNSKMQVYSGSKCAYLPKMMTLHQQCIRVLKNNIDSIFEVGGVPYSVLEPVLERCTPDQLYRIEECNHVLIEETDQLWKVHCHRDFKEERPEEYESWREMYLRLQDAREQRLRLLTNNIRSAHANKPKGRQAKMAFVNSVAKPPRDVRRRQEKFGTGGAAVPEKVRIKPAPYTTGSSHVPASNSSSSFHSSPEELAYEGPSTSSAHLAPVASSSVSYDPRKPAVKKIAPMMAKTIKAFKNRFSRR
binding result [1]: binds

B12: Elongin A point mutant L550S (other)
chain: MAAESALQVVEKLQARLAANPDPKKLLKYLKKLSVLPITVDILVETGVGKTVNSFRKHEQVGNFARDLVAQWKKLVPVERNNEAEDQDFEKSNSRKRPRDVPQQEEEAEGNYQESWQASGSQPYSPEHRQKKHRKLPELERPHKVAHGHERRDERKRCHKVSPPYSSDPESSDYGHVQSPPPSSPHQMYTDLSRSPEMDQEPIVSHPKPGKVHSNTFQDRLGVSHLGEHQGKGAVSQNKPHKSSHKEKRPVDARGDEKSSVMGREKSHKASSKEESRRLLSEDSAKEKLPSSVVKKEKDREGNSLKKKLSPALDVASDNHFKKPKHKDSEKIKSDKNKQSVDSVDSGRGTGDPLPRAKDKVPNNLKAQEGKVRTNSDRKSPGSLPKVEEMDMDDEFEQPTMSFESYLSYDQPRKKKKKVVKTSGTALGEKGLKKKDSKSTSKNLNSAQKLPKANENKSDKLQPAGAEPTRPRKVPTDVLPALPDIPLPAIQTNYRPLPSLELISSFQPKRKAFSSPQEEEEAGFTGRRMNSKMQVYSGSKCAYLPKMMTSHQQCIRVLKNNIDSIFEVGGVPYSVLEPVLERCTPDQLYRIEECNHVLIEETDQLWKVHCHRDFKEERPEEYESWREMYLRLQDAREQRLRLLTNNIRSAHANKPKGRQAKMAFVNSVAKPPRDVRRRQEKFGTGGAAVPEKVRIKPAPYTTGSSHVPASNSSSSFHSSPEELAYEGPSTSSAHLAPVASSSVSYDPRKPAVKKIAPMMAKTIKAFKNRFSRR
binding result [1]: no binding
